Measured values: PMC9536601

Columns and labels:
[1] = biological target: chimeric hexon of the Ad5 vector Ad5:H6.1 (Ad5 hexon with residues 112-593 from Ad6 hexon, on virions) (human adenovirus 5 | human adenovirus 6) (UniProt P04133); assay: SPR; Biacore T200; about 300 to 5,000 RU of Ad virions immobilised on a CM5 chip, coagulation factors flowed over at four concentrations, 50 uL/min; running buffer 10 mM HEPES, 150 mM NaCl, 1 mM CaCl2, 0.5 mM MgCl2, 0.1% BSA, 0.05% polysorbate 20, pH 7.4; regeneration with 3 mM EDTA; global fit to a 1:1 kinetic interaction model, double referencing
[2] = biological target: chimeric hexon of the Ad5 vector Ad5:H1.1 (Ad5 hexon with residues 112-593 from Ad1 hexon, on virions) (human adenovirus 5 | human adenovirus 1) (UniProt P04133); assay: as above
[3] = biological target: chimeric hexon of the Ad5 vector Ad5:H6.2 (Ad6 hexon section with HVR7 mutations, on virions) (human adenovirus 5 | human adenovirus 6) (UniProt P04133); assay: as above
[4] = biological target: chimeric hexon of the Ad5 vector Ad5:H6.3 (Ad6 hexon section with HVR7 mutations, on virions) (human adenovirus 5 | human adenovirus 6) (UniProt P04133); assay: as above
[5] = biological target: hexon of wild-type human adenovirus type 1 (on virions) (human adenovirus 1); assay: as above
[6] = biological target: chimeric hexon of the Ad5 vector Ad5:H57.1 (Ad5 hexon with residues 112-593 from Ad57 hexon, on virions) (human adenovirus 5 | human adenovirus 57) (UniProt P04133); assay: as above
[7] = biological target: chimeric hexon of Ad5:H6.1 (Ad5 vector, hexon residues 112-593 from Ad6 hexon), on the virion (human adenovirus type 5 | human adenovirus type 6) (UniProt P04133); assay: SPR; Biacore T200; about 300 to 5,000 RU of Ad virions immobilised on a CM5 chip, coagulation factors flowed over at four concentrations, 50 uL/min; 10 mM HEPES, 150 mM NaCl, 1 mM CaCl2, 0.5 mM MgCl2, 0.1% BSA, 0.05% polysorbate 20, pH 7.4; global fit to a 1:1 kinetic interaction model, double referencing
[8] = biological target: chimeric hexon of Ad5:H6.2 (Ad5 vector, hexon residues 112-593 from Ad6 hexon, HVR7 IGNTDTF), on the virion (human adenovirus type 5 | human adenovirus type 6) (UniProt P04133); assay: as above
[9] = biological target: chimeric hexon of Ad5:H1.1 (Ad5 vector, hexon residues 112-593 from Ad1 hexon), on the virion (human adenovirus type 5 | human adenovirus type 1) (UniProt P04133); assay: as above
[10] = biological target: chimeric hexon of Ad5:H6.3 (Ad5 vector, hexon residues 112-593 from Ad6 hexon, HVR7 IGNTETF), on the virion (human adenovirus type 5 | human adenovirus type 6) (UniProt P04133); assay: as above
[11] = biological target: chimeric hexon of Ad5:H57.1 (Ad5 vector, hexon residues 112-593 from Ad57 hexon), on the virion (human adenovirus type 5 | human adenovirus type 57) (UniProt P04133); assay: as above

“bovine prothrombin (coagulation factor II) (from UniProt P00735 44-625) (natural protein)” showed a Kd [1] of 0.067 µM, a koff [1] of 0.0039 s⁻¹ and a kon [1] of 58200 M⁻¹ s⁻¹. It also gave a Kd [2] of 0.034 µM, a koff [2] of 0.00224 s⁻¹ and a kon [2] of 65800 M⁻¹ s⁻¹. For the same substance, the Kd [3] was 0.95 µM, the koff [3] was 0.0291 s⁻¹ and the kon [3] was 30500 M⁻¹ s⁻¹. It also gave a Kd [4] of 2.5 µM, a koff [4] of 0.0729 s⁻¹ and a kon [4] of 29200 M⁻¹ s⁻¹. For the same substance, the Kd [5] was 0.037 µM, the koff [5] was 0.00193 s⁻¹ and the kon [5] was 52800 M⁻¹ s⁻¹. The Kd [6] was 0.027 µM, the koff [6] was 0.000993 s⁻¹ and the kon [6] was 37400 M⁻¹ s⁻¹. It also gave a Kd [7] of 0.067 µM, a Kd [8] of 0.95 µM and a Kd [9] of 0.034 µM. The Kd [10] was 2.5 µM and the Kd [11] was 0.027 µM.
